Measured values from US6646113.

Biological target: spliceosomal snRNP core Sm proteins, endogenous in cell extracts
Assay: co-IP with Y12 from transfected 293T cells, Western blot

- amount co-immunoprecipitated relative to wild-type SMN (fraction of wild type): 0.33
Substance: myc-tagged SMNΔC26 (from UniProt Q16637 1-268)
